molecular target: c-Src SH2; assay: SH2 binding enrichment of the phosphorylated peptide, bacterial display (enrichment ratio); higher = better substrate or ligand; peptides without Tyr show the background
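Throughout, for SH2 binding enrichment of the phosphorylated peptide, bacterial display: peptide library displayed on the E. coli surface as eCPX fusions, selected cells deep-sequenced, score is each peptide's frequency after selection divided by its frequency in the input.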
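Throughout, for phosphorylation enrichment, bacterial display: 11-residue human phosphosite peptides and single-mutation variants displayed on the E. coli surface, counted by deep sequencing, each peptide's frequency after selection divided by its frequency in the unselected input library; frequency after pTyr selection over input frequency; kinase dosed for 20-30% of maximal phosphorylation in three min.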

Sequence	SH2 binding enrichment
AKRKNYAPVAM [CFAP47_Y557]	1.05
FLQTDDTSQVS [FRMPD1_Y846_Y846D]	0.457
RYVTRYIYNRE [HLA-DQB1_Y62]	0.367
TGEKLYQHKEF [ZNF283_Y627_R629H]	0.419
DFLSSYSAVNQ [OAT_Y85]	2.01
PLQKTYNYNVL [SLC4A1_Y553]	1.12
SAEEDYMADAK [KCNT1_Y876]	0.525
LKALKYKSMKI [ITGA11_Y1098]	0.783
LINSVYGCSRQ [TMPRSS6_Y290_T287N]	0.589
FPHVISARLWR [SMAD4_Y95_Y95S]	0.468
ELTSVYGSRAR [SENP1_Y349_D350G]	0.411
YEREQYADRTR [RBM4_Y355_A359T]	0.61
QKFMAYPSQGG [HLCS_Y236_L237P]	0.477
LVMFIYAIFGM [SCN1A_Y1684]	1.2
DGQVNYEEFVQ [CALM1_Y139]	0.399
GSQERYFELVE [TSC2_Y407]	2.07
FFRNVYHLASV [RBL1_Y796_K794N_YF]	1.79
TKDTFYKQRMF [GBA_Y451_P454R]	0.396
HKETGYVVERP [BCLAF1_Y466_L461H]	0.394
PTTKTYLPHFD [HBA1_Y43_F44L]	0.483
YRDALYKSMVD [PHEX_Y250_F252S]	0.457
GVIRHYVVCST [BTK_Y334]	0.495
SIKGKYVTALF [KCNH2_Y611_D609G_YF]	0.735
GLGGGYGGASG [KRT8_Y54]	0.369
TKYVAYIESQG [KDM4B_Y34_N29T]	0.675
NVTGHYIPPFH [PPA2_Y59_S61P]	0.538
LKSEMYQKLFK [RGS13_Y146_L150F]	0.982
GTTIHYNYMCN [TP53_Y234_C229G]	1.56
TCRPPYYHRNC [HGD_Y333_F329C]	1.01

molecular target: SHP2-C SH2; assay: as above

Sequence	SH2 binding enrichment
AKRKNYAPVAM [CFAP47_Y557]	1.26
FLQTDDTSQVS [FRMPD1_Y846_Y846D]	0.66
RYVTRYIYNRE [HLA-DQB1_Y62]	0.432
TGEKLYQHKEF [ZNF283_Y627_R629H]	0.695
DFLSSYSAVNQ [OAT_Y85]	3.8
PLQKTYNYNVL [SLC4A1_Y553]	0.766
SAEEDYMADAK [KCNT1_Y876]	0.758
LKALKYKSMKI [ITGA11_Y1098]	0.876
LINSVYGCSRQ [TMPRSS6_Y290_T287N]	1.12
FPHVISARLWR [SMAD4_Y95_Y95S]	1.08
ELTSVYGSRAR [SENP1_Y349_D350G]	0.501
YEREQYADRTR [RBM4_Y355_A359T]	0.717
QKFMAYPSQGG [HLCS_Y236_L237P]	0.654
LVMFIYAIFGM [SCN1A_Y1684]	1.8
DGQVNYEEFVQ [CALM1_Y139]	0.493
GSQERYFELVE [TSC2_Y407]	0.499
FFRNVYHLASV [RBL1_Y796_K794N_YF]	0.629
TKDTFYKQRMF [GBA_Y451_P454R]	0.68
HKETGYVVERP [BCLAF1_Y466_L461H]	0.401
PTTKTYLPHFD [HBA1_Y43_F44L]	0.756
YRDALYKSMVD [PHEX_Y250_F252S]	0.666
GVIRHYVVCST [BTK_Y334]	0.529
SIKGKYVTALF [KCNH2_Y611_D609G_YF]	0.806
GLGGGYGGASG [KRT8_Y54]	0.62
TKYVAYIESQG [KDM4B_Y34_N29T]	8.32
NVTGHYIPPFH [PPA2_Y59_S61P]	0.994
LKSEMYQKLFK [RGS13_Y146_L150F]	1.24
GTTIHYNYMCN [TP53_Y234_C229G]	0.73
TCRPPYYHRNC [HGD_Y333_F329C]	3.31

molecular target: Grb2 SH2 (UniProt P62993); assay: as above
Sequence (P62993 whole entry, looked up): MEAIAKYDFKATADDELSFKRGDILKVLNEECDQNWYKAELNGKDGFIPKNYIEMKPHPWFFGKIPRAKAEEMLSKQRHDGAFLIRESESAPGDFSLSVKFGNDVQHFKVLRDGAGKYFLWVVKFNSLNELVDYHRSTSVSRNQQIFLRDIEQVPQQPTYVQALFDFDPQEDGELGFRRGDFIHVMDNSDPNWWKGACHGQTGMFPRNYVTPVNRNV

Sequence	SH2 binding enrichment
AKRKNYAPVAM [CFAP47_Y557]	1.11
FLQTDDTSQVS [FRMPD1_Y846_Y846D]	0.798
RYVTRYIYNRE [HLA-DQB1_Y62]	0.72
TGEKLYQHKEF [ZNF283_Y627_R629H]	0.818
DFLSSYSAVNQ [OAT_Y85]	1.1
PLQKTYNYNVL [SLC4A1_Y553]	0.708
SAEEDYMADAK [KCNT1_Y876]	0.901
LKALKYKSMKI [ITGA11_Y1098]	1.34
LINSVYGCSRQ [TMPRSS6_Y290_T287N]	0.727
FPHVISARLWR [SMAD4_Y95_Y95S]	1.11
ELTSVYGSRAR [SENP1_Y349_D350G]	0.69
YEREQYADRTR [RBM4_Y355_A359T]	0.878
QKFMAYPSQGG [HLCS_Y236_L237P]	0.941
LVMFIYAIFGM [SCN1A_Y1684]	2.09
DGQVNYEEFVQ [CALM1_Y139]	0.784
GSQERYFELVE [TSC2_Y407]	0.689
FFRNVYHLASV [RBL1_Y796_K794N_YF]	0.563
TKDTFYKQRMF [GBA_Y451_P454R]	0.83
HKETGYVVERP [BCLAF1_Y466_L461H]	0.747
PTTKTYLPHFD [HBA1_Y43_F44L]	0.901
YRDALYKSMVD [PHEX_Y250_F252S]	0.804
GVIRHYVVCST [BTK_Y334]	0.819
SIKGKYVTALF [KCNH2_Y611_D609G_YF]	0.988
GLGGGYGGASG [KRT8_Y54]	0.692
TKYVAYIESQG [KDM4B_Y34_N29T]	0.8
NVTGHYIPPFH [PPA2_Y59_S61P]	0.779
LKSEMYQKLFK [RGS13_Y146_L150F]	0.829
GTTIHYNYMCN [TP53_Y234_C229G]	0.716
TCRPPYYHRNC [HGD_Y333_F329C]	1.76

molecular target: Hck (UniProt P08631); assay: phosphorylation enrichment, bacterial display (enrichment ratio); higher = better substrate or ligand; peptides without Tyr show the background
Sequence (P08631 whole entry, looked up): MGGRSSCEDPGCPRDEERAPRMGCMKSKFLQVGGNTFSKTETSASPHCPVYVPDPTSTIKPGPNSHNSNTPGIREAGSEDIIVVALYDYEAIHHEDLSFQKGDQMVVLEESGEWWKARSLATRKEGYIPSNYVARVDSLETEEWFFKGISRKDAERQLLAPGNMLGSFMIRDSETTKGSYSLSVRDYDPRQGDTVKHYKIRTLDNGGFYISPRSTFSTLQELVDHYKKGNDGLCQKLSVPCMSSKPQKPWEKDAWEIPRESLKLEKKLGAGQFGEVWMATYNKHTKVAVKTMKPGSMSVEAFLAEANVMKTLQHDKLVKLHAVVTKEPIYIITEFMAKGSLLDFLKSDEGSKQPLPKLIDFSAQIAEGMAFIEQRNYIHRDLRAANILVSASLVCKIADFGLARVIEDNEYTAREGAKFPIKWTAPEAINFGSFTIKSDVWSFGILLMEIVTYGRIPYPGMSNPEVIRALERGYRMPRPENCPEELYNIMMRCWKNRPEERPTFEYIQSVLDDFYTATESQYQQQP

Sequence	phosphorylation enrichment
AKRKNYAPVAM [CFAP47_Y557]	0.392
FLQTDDTSQVS [FRMPD1_Y846_Y846D]	0.587
RYVTRYIYNRE [HLA-DQB1_Y62]	0.739
TGEKLYQHKEF [ZNF283_Y627_R629H]	0.495
DFLSSYSAVNQ [OAT_Y85]	0.531
PLQKTYNYNVL [SLC4A1_Y553]	0.596
SAEEDYMADAK [KCNT1_Y876]	0.586
LKALKYKSMKI [ITGA11_Y1098]	0.424
LINSVYGCSRQ [TMPRSS6_Y290_T287N]	4.43
FPHVISARLWR [SMAD4_Y95_Y95S]	0.429
ELTSVYGSRAR [SENP1_Y349_D350G]	1.86
YEREQYADRTR [RBM4_Y355_A359T]	0.469
QKFMAYPSQGG [HLCS_Y236_L237P]	0.537
LVMFIYAIFGM [SCN1A_Y1684]	0.777
DGQVNYEEFVQ [CALM1_Y139]	0.626
GSQERYFELVE [TSC2_Y407]	0.466
FFRNVYHLASV [RBL1_Y796_K794N_YF]	0.596
TKDTFYKQRMF [GBA_Y451_P454R]	0.339
HKETGYVVERP [BCLAF1_Y466_L461H]	0.448
PTTKTYLPHFD [HBA1_Y43_F44L]	0.389
YRDALYKSMVD [PHEX_Y250_F252S]	0.525
GVIRHYVVCST [BTK_Y334]	0.536
SIKGKYVTALF [KCNH2_Y611_D609G_YF]	0.408
GLGGGYGGASG [KRT8_Y54]	0.316
TKYVAYIESQG [KDM4B_Y34_N29T]	0.485
NVTGHYIPPFH [PPA2_Y59_S61P]	0.418
LKSEMYQKLFK [RGS13_Y146_L150F]	0.756
GTTIHYNYMCN [TP53_Y234_C229G]	0.673

— the supplement of paper PMC10065799, “High-throughput profiling of sequence recognition by tyrosine kinases and SH2 domains using bacterial peptide display” (eLife, 2023)
